Results on 3 molecules are retold here after patent US20170158762A1 (ANAPTYSBIO, published 2017).

For experiment [1], the target named is cell surface DDR1 on T47D cells and 293/DDR1 cells (UniProt Q08345). In words: cell-based or functional assay.
The target in experiment [2] is T1, Monomeric soluble human DDR1-avi-his, APE1469.6 (hDDR1) (human, UniProt Q08345 21-416, limits assumed).
T1 construct: also called hDDR1-avi-his; huDDR1; not shown: avi tag and his tag
The experiment can be described thus: SPR (BIACORE T200), antibody captured on anti-human IgG Fc, monomeric DDR1-avi-his as analyte, 25 C, 1:1 fit. The procedure:
anti-Human IgG (Fc-specific, ≈10,000 RU) (GE Healthcare, Little Chalfont, Buckinghamshire, UK) was immobilized on a BIACORE™[…] chip using EDC-activated amine coupling chemistry. Antibodies (0.5 μg/mL, 50 second capture time at 10 μl/minute) were then captured using this surface to a target capture level of ˜125 RU. Monomeric soluble human DDR1-avi-his was then flowed over captured antibody (300 second association, 600 second dissociation) using a three-fold serial dilution series from 200 nM to 0.27 nM. Runs were performed at 25° C. and HBS-EP+, pH 7.6 buffer was used for all dilutions (Teknova, Hollister, Calif.). Captured antibody and antigen were removed between each cycle using two regeneration steps with 3M MgCl₂ (60 seconds contact time) to ensure a fresh binding surface for each concentration of antigen. The resulting sensorgrams were fit globally using a 1:1 binding model to calculate on- and off-rates (ka and kd, respectively) and dissociation constants as a measure of overall affinity (KD).
A general note: In SPR one partner is held on a chip, and binding of the other changes the refractive index at the surface.

Experiment [3] deals with T1, Monomeric soluble human DDR1-avi-his, …. The experiment can be described thus: ELISA on coated hDDR1-avi-his; antibody kept in normal mouse serum (day 0, 1, 4, 7 at 37 C; day 7 at 4 C) or PBS day 0; absorbance 450-540 nm. The procedure:
The APE05570 and APE05571 antibodies described in Table 4 were tested for the ability to bind cell surface DDR in mouse serum. The antibodies were incubated in normal mouse serum for 1, 4, or 7 days at 37° C. Varying concentrations of the antibodies were then analyzed for ability to bind to DDR1 by an ELISA assay. Briefly, hDDR1-avi-his was coated on plates at 1 μg/m overnight at 4° C. and washed three times in phosphate buffered saline with Tween (PBST). Plates were then blocked with 3% BSA/PBS (200 μl/well) for one hour. The antibodies were then diluted, added to the washed plates, and incubated for two hours at room temperature. Bound antibodies were detected with goat anti HuIgG-(H+L chain)-horseradish peroxidase (HRP) at a dilution of 1:10,000. After washing the plates, 100 μl of 3,3′,5,5′-tetramethylbenzidine (TMB) substrate was added to detect antibody, and plates were read at 450 nm using a SpectraMax™ microplate reader (Molecular Devices, LLC., Sunnyvale, Calif.).
A general note: In an ELISA, binding on a coated surface is turned into a signal by an enzyme label.

Broadly, the Kd is the free concentration of one partner at which half of the binding sites on the other are occupied at equilibrium, for simple one-to-one binding. Low values mean tighter binding, high ones weaker binding. The koff is a measure of how fast the partners let go of each other. A higher koff goes with a short-lived complex. Broadly, the kon is the second-order rate constant of association. Low values mean slower complex formation, high ones faster complex formation. As usually defined, the EC50 (read off the curve) is the concentration needed to bring the measured effect to its halfway point. A low value points to a more potent agent.

T1 sequence (Q08345 21-416 limits assumed): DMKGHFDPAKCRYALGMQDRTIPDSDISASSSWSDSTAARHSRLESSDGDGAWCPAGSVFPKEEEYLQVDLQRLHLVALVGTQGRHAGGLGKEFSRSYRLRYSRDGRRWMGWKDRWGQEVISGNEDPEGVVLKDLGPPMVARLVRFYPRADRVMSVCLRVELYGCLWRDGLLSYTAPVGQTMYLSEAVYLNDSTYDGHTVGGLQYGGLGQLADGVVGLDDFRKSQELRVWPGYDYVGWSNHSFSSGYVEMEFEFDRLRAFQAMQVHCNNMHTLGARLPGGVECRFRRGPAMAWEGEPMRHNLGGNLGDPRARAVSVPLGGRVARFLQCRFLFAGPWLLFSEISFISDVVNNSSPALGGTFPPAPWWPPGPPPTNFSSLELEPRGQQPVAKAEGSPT
Chain of cell surface DDR1 on T47D cells and 293/DDR1 cells (Q08345 19-913, stated change not applied): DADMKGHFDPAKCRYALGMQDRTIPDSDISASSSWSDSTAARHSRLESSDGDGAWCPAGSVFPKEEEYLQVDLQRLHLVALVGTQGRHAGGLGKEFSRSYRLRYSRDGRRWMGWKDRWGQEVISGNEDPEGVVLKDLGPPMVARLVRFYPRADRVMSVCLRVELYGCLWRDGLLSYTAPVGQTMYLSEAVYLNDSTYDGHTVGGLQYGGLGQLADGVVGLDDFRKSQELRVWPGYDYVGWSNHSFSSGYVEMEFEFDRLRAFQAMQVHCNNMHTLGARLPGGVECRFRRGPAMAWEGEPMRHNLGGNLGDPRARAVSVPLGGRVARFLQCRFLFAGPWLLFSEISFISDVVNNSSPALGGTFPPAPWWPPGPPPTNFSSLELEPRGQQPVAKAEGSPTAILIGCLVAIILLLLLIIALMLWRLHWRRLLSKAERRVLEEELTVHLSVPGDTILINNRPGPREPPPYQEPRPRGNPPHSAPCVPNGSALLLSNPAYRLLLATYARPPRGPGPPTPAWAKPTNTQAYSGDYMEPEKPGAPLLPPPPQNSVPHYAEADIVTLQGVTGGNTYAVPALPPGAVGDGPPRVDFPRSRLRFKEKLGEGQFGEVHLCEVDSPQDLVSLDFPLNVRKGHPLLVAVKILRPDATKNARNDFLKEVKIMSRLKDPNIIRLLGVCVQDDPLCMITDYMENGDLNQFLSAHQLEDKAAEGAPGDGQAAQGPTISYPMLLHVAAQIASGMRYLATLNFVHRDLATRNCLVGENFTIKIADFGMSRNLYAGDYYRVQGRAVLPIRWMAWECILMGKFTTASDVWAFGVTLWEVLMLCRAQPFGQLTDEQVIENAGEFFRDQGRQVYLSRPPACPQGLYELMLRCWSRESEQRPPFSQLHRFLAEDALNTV

B1: APE05552 (antibody, V domains shown)
VH: EVQLVQSGAEVKKPGESLKISCKGSGYSFTNSYWIGWVRQMPGKGLEWMGMIYPGDSDTRYSPSFQGQVTISSDKSISTAYLQWNSLKASDTAVYYCAKDLAPSAYYDYWGQGTLVTVSS
VL: EIVLTQSPGTLSLSPGERATLSCRASQSVRSSYLAYLAWYQQKPGQAPRLLIYDASSRATGIPDRFSGSGSGTDFTLTISRLEPEDFAVYYCQQYGRLPYTFGQGTRLEIKR
notes: from the stated CDR positions they appear to be variable regions; human IgG (captured with anti-human IgG Fc); also called APE05552.2
B1 had a P-DDR1 IC50 (nM); collagen I-stimulated T47D cells, Phospho-DDR1 ELISA in experiment [1] of 27.6 nM. Further, in experiment [2], the Kd worked out at 43.8 nM, the koff is 0.0222 s⁻¹ and the on-rate (kon) is 507000 M⁻¹ s⁻¹.

B2: APE05551 (antibody, V domains shown)
VH: EVQLVQSGAEVKKPGESLKISCKGSGYSFTNSYWIGWVRQMPGKGLEWMGMIYPGDSDTRYSPSFQGQVTISSDKSISTAYLQWNSLKASDTAVYYCAKDLAPSAYYNYWGQGTLVTVSS
VL: EIVLTQSPGTLSLSPGERATLSCRASQSVRSSYLAYLAWYQQKPGQAPRLLIYDASSRATGIPDRFSGSGSGTDFTLTISRLEPEDFAVYYCQQYGRLPYTFGQGTRLEIKR
notes: from the stated CDR positions they appear to be variable regions; human IgG (captured with anti-human IgG Fc); also called APE05551.2
In experiment [1], B2 came in with a P-DDR1 IC50 (nM); collagen I-stimulated T47D cells, Phospho-DDR1 ELISA of 26.1 nM. In experiment [2], the affinity, expressed as Kd, was 51.4 nM; the koff turned out to be 0.0284 s⁻¹; the kon is 551000 M⁻¹ s⁻¹.

B3: APE05571 (antibody, V domains shown)
VH: EVQLVQSGAEVKKPGESLKISCKGSGYSFTNSYWIGWVRQMPGKGLEWMGMIYPGDSDTRYSPSFQGQVTISSDKSISTAYLQWASLKASDTAVYYCAKDLTPSAYYDYWGQGTLVTVSS
VL: EIVLTQSPGTLSLSPGERATLSCRASQSVRSSYLAYLAWYQQKPGQAPRLLIYDASSRATGIPDRFSGSGSGTDFTLTISRLEPEDFAVYYCQQYGRLPYTFGQGTRLEIKR
notes: from the stated CDR positions they appear to be variable regions; human IgG (captured with anti-human IgG Fc); also called APE05571.1
In experiment [1], B3 gave a P-DDR1 IC50 (nM); collagen I-stimulated T47D cells, Phospho-DDR1 ELISA of 19.3 nM. Further, the “EC50 (read off the curve)” value in experiment [3] was roughly 7 ng/mL. Besides, in experiment [2], the Kd is 47 nM, the off-rate (koff) worked out at 0.0233 s⁻¹ and the kon turned out to be 496000 M⁻¹ s⁻¹.
